According to patent publication US20250026813A1 (published 2025):
Substitutions are numbered along the chain they refer to.

B1: IMPI-052 (antibody, V domains shown)
VH: EVQLVESGGGLIQPGGSLRLSCAASGVTVSSNYMNWVRQAPGKGLEGVSVIYSGGTTYYADSVKGRFTISRDNSKNTLYLQMNSLRAEDTAVYYCARDTVVYGMDVWGQGTTVTVSS
VL: DIQLTQSPSFLSASVGDRVTITCWASQGISSYLAWYQQKPGKAPKLLIYTASTLQSGVPSRFSGSGSGTEFTLTISSLQPEDFATYYCQQLNSYPLTFGGGTKVEIK
B2: IMPI-005 (antibody, V domains shown)
VH: B1 VH with V27F, G47W, T56S, Y79F, T90S, T99L, V100G, V101P, M104V
VL: B1 VL with T50A, Q90E, G100Q, K103R, V104L
B3: IMPI-006 (antibody, V domains shown)
VH: QLQLQESGPGLVKPSETLSLTCTVSGGSISNSNYYWGWIRQPPGKGLEWIGSIYYSGRTYYNPSLKSRVTISVDTSKNQFSLKLSSVTAADTAVYYCARMGLLWFGEFYGMDVWGQGTTVTVSS
VL: DIQMTQSPSSLSASVGDRVTITCRASQGISSWLAWYQQKPEKAPKSLIYDASSLQRGVPSRFSGSGSGTDFTLTISSLQPEDFASYYCQQYNSYPLTFGGGTRVEIK
B4: IMPI-017 (antibody, V domains shown)
VH: B1 VH with S25A, V27L, A40V, G47W, T56S, T99L, V100G, V101T, Y102L
VL: B1 VL with S31T, T50A, P95L, L96P, G100Q
B5: IMPI-021 (antibody, V domains shown)
VH: B1 VH with N35S, G47W, T56S, Y58F, T99L, V100S, V101Y
VL: B1 VL with T50A, R61K, L96C, T97S, G100Q, V104L
B6: IMPI-029 (antibody, V domains shown)
VH: B1 VH with G47W, T56S, Y79F, T90S, T99L, V100G, V101P, M104V
VL: B1 VL with T50A, Q90E, G100Q, K103R, V104L
B7: IMPI-047 (antibody, V domains shown)
VH: B1 VH with V27F, G47W, T56S, A87T, T99L, V101A
VL: B1 VL with L46V, T50A, Q90L, Y94N
B8: IMPI-022 (antibody, V domains shown)
VH: EVQLVESGGGLVQPGRSLRLSCAASGFTFDDYAMHWVRQAPGKGLEWVSGITWNSGSIGYADSVKGRFTISRDNAKNSLYLHMNSLRVEDTALYYCAKDLQGDYYYYGVDVWGQGTTVTVSS
VL: AIQLTQSPSSLSASVGDRVTITCRASQGISSALAWYQQKPGKAPKLLLYDASSLVSGVPSRFSGSRSGTDFTLTISSLQPEDFATYYCQQFISYPLTFGGGTRVEIK
B9: IMPI-024 (antibody, V domains shown)
VH: EVQLVQSGAEVKKPGESLKISCKGSGYSFTSYWIGWVRQMPGKGLEWMGIIYPGDSDTRYSPSFQGQVTISADKSISTAYLQWSSLKASDTAMYYCVRSYNWNYFDYWGQGTLVTVSS
VL: B8 VL with A32G, P40A, L48I, A51V, V55E, R66G, I92L, L96W, G100Q, R103K
B10: IMPI-027 (antibody, V domains shown)
VH: QVQLQESGPGLVKPSQTLSLTCTVSGGSISSYGYYWNWIRQHPGKGLEWIGYIYYSGSTYYNPSLKSRVTISVDTSKNQLSLRLNSVSAADTAVYYCARDFGGNSNYFDYWGQGTLVTVSS
VL: B8 VL with A25T, L48I, V55E, R66G, I92N, R103K
B11: IMPI-037 (antibody, V domains shown)
VH: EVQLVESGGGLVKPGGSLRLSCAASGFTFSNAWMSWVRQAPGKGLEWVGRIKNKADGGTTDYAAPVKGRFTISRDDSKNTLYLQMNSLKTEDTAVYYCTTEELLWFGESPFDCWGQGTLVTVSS
VL: B1 VL with S30N, T50A, A84T, L91F, S93D, L96R, G100P

Assays:
[1] = biological target: RBD domain of the spike protein of SARS-CoV-2 virus (Acro Biosystems SPD-C52H3) (SARS-CoV-2, UniProt P0DTC2 319-537)
[2] = biological target: SARS-CoV-2 spike protein receptor binding domain (RBD) (SARS-CoV-2, UniProt P0DTC2 319-541)
[3] = biological target: SARS-CoV-2 spike protein N-terminal domain (NTD) (SARS-CoV-2, UniProt P0DTC2 14-305)

Binder | IC50 [1] | Kd [2] | Kd [3]
B1 | 4.85 nM |  | 
B2 |  | 24.9 nM | 
B3 |  | 191 nM | 
B4 |  | 2.25 nM | 1050 nM
B5 |  | 14.7 nM | 
B6 |  | 0.446 nM | 219 nM
B7 |  | 6.65 nM | 2320 nM
B8 |  |  | 603 nM
B9 |  | 1.16 nM | 660 nM
B10 |  | 6.31 nM | 2910 nM
B11 |  | 22.3 nM | 
